Laboratory results reported in PMC8873477, “Structural basis of adenylyl cyclase 9 activation” (Nature Communications, 2022).

Molecular target: T1, C-terminally truncated bovine AC9_(1250) (residues 1-1250 of AC9) (bovine, UniProt E1BM79 1-1250)
T1 construct: the purification is said to be identical to that of AC9; source: HEK293F cells, transient transfection (PEI), purified as AC9
T1 sequence (looked up): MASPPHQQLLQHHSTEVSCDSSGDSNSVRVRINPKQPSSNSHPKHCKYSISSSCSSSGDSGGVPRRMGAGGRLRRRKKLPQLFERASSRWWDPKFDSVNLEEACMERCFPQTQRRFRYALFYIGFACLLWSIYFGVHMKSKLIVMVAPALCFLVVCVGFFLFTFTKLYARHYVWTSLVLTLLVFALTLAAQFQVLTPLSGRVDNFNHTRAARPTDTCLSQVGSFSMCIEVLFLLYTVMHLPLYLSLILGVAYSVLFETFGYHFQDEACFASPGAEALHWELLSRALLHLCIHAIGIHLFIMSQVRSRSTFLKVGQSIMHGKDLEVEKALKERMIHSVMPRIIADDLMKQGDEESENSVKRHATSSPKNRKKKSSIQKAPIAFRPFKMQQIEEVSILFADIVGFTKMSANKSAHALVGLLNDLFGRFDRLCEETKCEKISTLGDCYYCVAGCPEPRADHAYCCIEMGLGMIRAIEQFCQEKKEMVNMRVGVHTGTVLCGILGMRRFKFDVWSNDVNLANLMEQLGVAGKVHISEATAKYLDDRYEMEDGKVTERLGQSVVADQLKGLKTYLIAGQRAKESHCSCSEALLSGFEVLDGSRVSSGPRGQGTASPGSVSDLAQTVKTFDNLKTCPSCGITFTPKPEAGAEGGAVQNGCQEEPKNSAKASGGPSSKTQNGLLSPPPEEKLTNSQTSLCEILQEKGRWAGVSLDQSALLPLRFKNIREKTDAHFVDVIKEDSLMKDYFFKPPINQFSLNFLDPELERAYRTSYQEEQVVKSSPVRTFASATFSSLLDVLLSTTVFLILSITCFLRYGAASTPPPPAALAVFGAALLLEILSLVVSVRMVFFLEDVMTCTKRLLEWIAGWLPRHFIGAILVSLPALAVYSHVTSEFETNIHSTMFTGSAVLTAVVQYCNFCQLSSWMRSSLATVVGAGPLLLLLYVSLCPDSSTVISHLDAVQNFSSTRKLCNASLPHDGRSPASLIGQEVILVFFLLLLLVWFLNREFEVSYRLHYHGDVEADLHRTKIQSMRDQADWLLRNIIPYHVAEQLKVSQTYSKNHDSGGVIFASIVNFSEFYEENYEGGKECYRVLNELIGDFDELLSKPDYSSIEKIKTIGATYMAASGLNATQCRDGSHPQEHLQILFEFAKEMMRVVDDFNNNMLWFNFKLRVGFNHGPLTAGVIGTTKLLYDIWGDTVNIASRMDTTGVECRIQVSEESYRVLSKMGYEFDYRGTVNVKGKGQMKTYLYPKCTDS
Test: cryo-EM structure; AC9_(1250) at 5 mg/ml with 5 mM MnCl2, 0.5 mM MANT-GTP and a 2-fold molar excess of GTPγS-activated Gαs, 30 min at 4 °C; no forskolin; soluble part refined to 3.8 Å
Details: both partners purified

B1: bovine Gαs (G protein αs subunit), GTPγS-activated (natural protein, UniProt P04896-1 1-394, looked up)
chain: MGCLGNSKTEDQRNEEKAQREANKKIEKQLQKDKQVYRATHRLLLLGAGESGKSTIVKQMRILHVNGFNGEGGEEDPQAARSNSDGEKATKVQDIKNNLKEAIETIVAAMSNLVPPVELANPENQFRVDYILSVMNVPDFDFPPEFYEHAKALWEDEGVRACYERSNEYQLIDCAQYFLDKIDVIKQDDYVPSDQDLLRCRVLTSGIFETKFQVDKVNFHMFDVGGQRDERRKWIQCFNDVTAIIFVVASSSYNMVIREDNQTNRLQEALNLFKSIWNNRWLRTISVILFLNKQDLLAEKVLAGKSKIEDYFPEFARYTTPEDATPEPGEDPRVTRAKYFIRDEFLRISTASGDGRHYCYPHFTCAVDTENIRRVFNDCRDIIQRMHLRQYELL
notes: bovine Gαs, Uniprot ID P04896-1; also called G protein α subunit; source: High Five insect cells, baculovirus, purified (Ni-NTA, Superdex 200 SEC)
binding result: binds
